Reference: patent US10196657B2, “Methods of producing 7-carbon chemicals via methyl-ester shielded carbon chain elongation” (INVISTA North America S.á r.l., priority 2012, dated 2019)

Legend:
Type in all cases: biochemical
[1] = ω-transaminase activity assay, reverse direction (7-aminoheptanoate to pimelate semialdehyde); settings: cell free extract, 10 mM 7-aminoheptanoate, 10 mM pyruvate, 25° C., 4 h; against empty vector control; FIG. 15
Protocol: (§1) A sequence encoding an N-terminal His-tag was added to the genes from Chromobacterium violaceum, Pseudomonas syringae, Rhodobacter sphaeroides, and Vibrio Fluvialis encoding the ω-transaminases of SEQ ID NOs: 8, 10, 11 and 13, respectively (see FIGS. 7F and 7G) such that N-terminal HIS tagged ω-transaminases could be produced. Each of the resulting modified genes was cloned into a pET21a expression vector under control of the T7 promoter and each expression vector was transformed into a BL21[DE3] E. coli host. The resulting recombinant E. coli strains were cultivated at 37° C. in a 250 mL shake flask culture containing 50 mL LB media and antibiotic selection pressure, with shaking at 230 rpm. Each culture was induced overnight at 16° C. using 1 mM IPTG.
(§2) The pellet from each induced shake flask culture was harvested via centrifugation. Each pellet was resuspended and lysed via sonication. The cell debris was separated from the supernatant via centrifugation and the cell free extract was used immediately in enzyme activity assays.
Enzyme activity assays in the reverse direction (i.e., 7-aminoheptanoate to pimelate semialdehyde) were performed in a buffer composed of a final concentration of 50 mM HEPES buffer (pH=7.5), 10 mM 7-aminoheptanoate, 10 mM pyruvate and 100 μM pyridoxyl 5′ phosphate. Each enzyme activity assay reaction was initiated by adding cell free extract of the ω-transaminase gene product or the empty vector control to the assay buffer containing the 7-aminoheptanoate and incubated at 25° C. for 4 h, with shaking at 250 rpm. The formation of L-alanine from pyruvate was quantified via RP-HPLC.

[2] = ω-transaminase activity assay, forward direction (pimelate semialdehyde to 7-aminoheptanoate); settings: for acceptance of pimelate semialdehyde as substrate (formation of pyruvate from L-alanine, RP-HPLC): cell free extract, 10 mM pimelate semialdehyde, 10 mM L-alanine, 25° C., 4 h, against empty vector control, FIG. 16; for acceptance of pimelate semialdehyde as substrate, synthesizing 7-aminoheptanoate (conclusion from confirmed reversibility): concluded from reversibility of the ω-transaminase activity
Protocol: as §1, §2
Enzyme activity in the forward direction (i.e., pimelate semialdehyde to 7-aminoheptanoate) was confirmed for the transaminases of SEQ ID NO 10, SEQ ID NO 11 and SEQ ID NO 13. Enzyme activity assays were performed in a buffer composed of a final concentration of 50 mM HEPES buffer (pH=7.5), 10 mM pimelate semialdehyde, 10 mM L-alanine and 100 μM pyridoxyl 5′ phosphate. Each enzyme activity assay reaction was initiated by adding a cell free extract of the ω-transaminase gene product or the empty vector control to the assay buffer containing the pimelate semialdehyde and incubated at 25° C. for 4 h, with shaking at 250 rpm. The formation of pyruvate was quantified via RP-HPLC.

[3] = ω-transaminase activity assay, 7-aminoheptanol to 7-oxoheptanol
Protocol: A nucleotide sequence encoding an N-terminal His-tag was added to the Chromobacterium violaceum, Pseudomonas syringae and Rhodobacter sphaeroides genes encoding the ω-transaminases of SEQ ID NOs: 8, 10 and 11, respectively (see FIGS. 7F and 7G) such that N-terminal HIS tagged ω-transaminases could be produced. The modified genes were cloned into a pET21a expression vector under the T7 promoter. Each expression vector was transformed into a BL21[DE3] E. coli host. Each resulting recombinant E. coli strain were cultivated at 37° C. in a 250 mL shake flask culture containing 50 mL LB media and antibiotic selection pressure, with shaking at 230 rpm. Each culture was induced overnight at 16° C. using 1 mM IPTG.
as §2
Enzyme activity assays in the reverse direction (i.e., 7-aminoheptanol to 7-oxoheptanol) were performed in a buffer composed of a final concentration of 50 mM HEPES buffer (pH=7.5), 10 mM 7-aminoheptanol, 10 mM pyruvate, and 100 μM pyridoxyl 5′ phosphate. Each enzyme activity assay reaction was initiated by adding cell free extract of the ω-transaminase gene product or the empty vector control to the assay buffer containing the 7-aminoheptanol and then incubated at 25° C. for 4 h, with shaking at 250 rpm. The formation of L-alanine was quantified via RP-HPLC.

[4] = Carboxylate reductase activity assay, N7-acetyl-7-aminoheptanoate to N7-acetyl-7-aminoheptanal; settings: purified enzyme enhanced by sfp gene product, 2 mM substrate, room temperature, 20 min; against empty vector control; FIG. 12
Protocol: The activity of each of the N-terminal His-tagged carboxylate reductases of SEQ ID NOs: 3, 6, and 7 (see Examples 4, and FIGS. 7B, 7E, and 7F) for converting N7-acetyl-7-aminoheptanoate to N7-acetyl-7-aminoheptanal was assayed in triplicate in a buffer composed of a final concentration of 50 mM HEPES buffer (pH=7.5), 2 mM N7-acetyl-7-aminoheptanoate, 10 mM MgCl2, 1 mM ATP, and 1 mM NADPH. The assays were initiated by adding purified carboxylate reductase and phosphopantetheine transferase or the empty vector control to the assay buffer containing the N7-acetyl-7-aminoheptanoate then incubated at room temperature for 20 min. The consumption of NADPH was monitored by absorbance at 340 nm.

acceptance of 7-aminoheptanoate as substrate (formation of L-alanine from pyruvate, RP-HPLC) [1]	acceptance of 7-aminoheptanol as substrate (formation of L-alanine, RP-HPLC) ([3]; cell free extract, 10 mM 7-aminoheptanol, 10 mM pyruvate, 25° C., 4 h, against empty vector control, FIG. 19)	acceptance of 7-oxoheptanol as substrate, forming 7-aminoheptanol (concluded from reversibility) ([3]; concluded from reversibility of the ω-transaminase activity (Example 2))	Molecule	acceptance of pimelate semialdehyde as substrate (formation of pyruvate from L-alanine, RP-HPLC) [2]	acceptance of pimelate semialdehyde as substrate, synthesizing 7-aminoheptanoate (conclusion from confirmed reversibility) [2]	acceptance of N7-acetyl-7-aminoheptanoate as substrate (NADPH consumption, absorbance at 340 nm) [4]
accepted 7-aminoheptanote as substrate	accepted 7-aminoheptanol as substrate	accept 7-oxoheptanol as substrate	SEQ ID NO 10: Pseudomonas syringae ω-transaminase, Genbank Accession No. AAY39893.1 (protein, listed as Pseudomonas syringae) MSANNPQTLEWQALSSEHHLAPFSDYKQLKEKGPRIITRAEGVYLWDSEGNKILDGMSGLWCVAIGYGREELADAASKQMRELPYYNLFFQTAHPPVLELAKAISDIAPEGMNHVFFTGSGSEGNDTMLRMVRHYWALKGQPNKKTIISRVNGYHGSTVAGASLGGMTYMHEQGDLPIPGVVHIPQPYWFGEGGDMTPDEFGIWAAEQLEKKILELGVENVGAFIAEPIQGAGGVIVPPDSYWPKIKEILSRYDILFAADEVICGFGRTSEWFGSDFYGLRPDMMTIAKGLTSGYVPMGGLIVRDEIVAVLNEGGDFNHGFTYSGHPVAAAVALENIRILREEKIVERVRSETAPYLQKRLRELSDHPLVGEVRGVGLLGAIELVKDKTTRERYTDKGAGMICRTFCFDNGLIMRAVGDTMIIAPPLVISFAQIDELVEKARTCLDLTLAVLQG	accepted pimelate semialdehyde as substrate	accepted pimelate semialdehyde as substrate	–
accepted 7-aminoheptanote as substrate	–	–	SEQ ID NO 13: Vibrio fluvialis ω-transaminase, Genbank Accession No. AEA39183.1 (protein, listed as Vibrio fluvialis) MNKPQSWEARAETYSLYGFTDMPSLHQRGTVVVTHGEGPYIVDVNGRRYLDANSGLWNMVAGFDHKGLIDAAKAQYERFPGYHAFFGRMSDQTVMLSEKLVEVSPFDSGRVFYTNSGSEANDTMVKMLWFLHAAEGKPQKRKILTRWNAYHGVTAVSASMTGKPYNSVFGLPLPGFVHLTCPHYWRYGEEGETEEQFVARLARELEETIQREGADTIAGFFAEPVMGAGGVIPPAKGYFQAILPILRKYDIPVISDEVICGFGRTGNTWGCVTYDFTPDAIISSKNLTAGFFPMGAVILGPELSKRLETAIEAIEEFPHGFTASGHPVGCAIALKAIDVVMNEGLAENVRRLAPRFEERLKHIAERPNIGEYRGIGFMWALEAVKDKASKTPFDGNLSVSERIANTCTDLGLICRPLGQSVVLCPPFILTEAQMDEMFDKLEKALDKVFAEVA	accepted pimelate semialdehyde as substrate	accepted pimelate semialdehyde as substrate	–
–	–	–	SEQ ID NO 6: Mycobacterium massiliense carboxylate reductase, Genbank Accession No. EIV11143.1 (protein, Mycobacterium massiliense) MTNETNPQQEQLSRRIESLRESDPQFRAAQPDPAVAEQVLRPGLHLSEAIAALMTGYAERPALGERARELVIDQDGRTTLRLLPRFDTTTYGELWSRTTSVAAAWHHDATHPVKAGDLVATLGFTSIDYTVLDLAIMILGGVAVPLQTSAPASQWTTILAEAEPNTLAVSIELIGAAMESVRATPSIKQVVVFDYTPEVDDQREAFEAASTQLAGTGIALETLDAVIARGAALPAAPLYAPSAGDDPLALLIYTSGSTGAPKGAMHSENIVRRWWIREDVMAGTENLPMIGLNFMPMSHIMGRGTLTSTLSTGGTGYFAASSDMSTLFEDMELIRPTALALVPRVCDMVFQRFQTEVDRRLASGDTASAEAVAAEVKADIRDNLFGGRVSAVMVGSAPLSEELGEFIESCFELNLTDGYGSTEAGMVFRDGIVQRPPVIDYKLVDVPELGYFSTDKPHPRGELLLKTDGMFLGYYKRPEVTASVFDADGFYMTGDIVAELAHDNIEIIDRRNNVLKLSQGEFVAVATLEAEYANSPVVHQIYVYGSSERSYLLAVVVPTPEAVAAAKGDAAALKTTIADSLQDIAKEIQLQSYEVPRDFIIEPQPFTQGNGLLTGIAKLARPNLKAHYGPRLEQMYAEIAEQQAAELRALHGVDPDKPALETVLKAAQALLGVSSAELAADAHFTDLGGDSLSALSFSDLLRDIFAVEVPVGVIVSAANDLGGVAKFVDEQRHSGGTRPTAETVHGAGHTEIRAADLTLDKFIDEATLHAAPSLPKAAGIPHTVLLTGSNGYLGHYLALEWLERLDKTDGKLIVIVRGKNAEAAYGRLEEAFDTGDTELLAHFRSLADKHLEVLAGDIGDPNLGLDADTWQRLADTVDVIVHPAALVNHVLPYNQLFGPNVVGTAEIIKLAITTKIKPVTYLSTVAVAAYVDPTTFDEESDIRLISAVRPIDDGYANGYGNAKWAGEVLLREAHDLCGLPVAVFRSDMILAHSRYTGQLNVPDQFTRLILSLIATGIAPGSFYQAQTTGERPLAHYDGLPGDFTAEAITTLGTQVPEGSEGFVTYDCVNPHADGISLDNFVDWLIEAGYPIARIDNYTEWFTRFDTAIRGLSEKQKQHSLLPLLHAFEQPSAAENHGVVPAKRFQHAVQAAGIGPVGQDGTTDIPHLSRRLIVKYAKDLEQLGLL	–	–	accepted N7-acetyl-7-aminoheptanoate as substrate
–	–	–	SEQ ID NO 3: Mycobacterium smegmatis carboxylate reductase, Genbank Accession No. ABK71854.1 (protein, listed as Mycobacterium smegmatis) MTSDVHDATDGVTETALDDEQSTRRIAELYATDPEFAAAAPLPAVVDAAHKPGLRLAEILQTLFTGYGDRPALGYRARELATDEGGRTVTRLLPRFDTLTYAQVWSRVQAVAAALRHNFAQPIYPGDAVATIGFASPDYLTLDLVCAYLGLVSVPLQHNAPVSRLAPILAEVEPRILTVSAEYLDLAVESVRDVNSVSQLVVFDHHPEVDDHRDALARAREQLAGKGIAVTTLDAIADEGAGLPAEPIYTADHDQRLAMILYTSGSTGAPKGAMYTEAMVARLWTMSFITGDPTPVINVNFMPLNHLGGRIPISTAVQNGGTSYFVPESDMSTLFEDLALVRPTELGLVPRVADMLYQHHLATVDRLVTQGADELTAEKQAGAELREQVLGGRVITGFVSTAPLAAEMRAFLDITLGAHIVDGYGLTETGAVTRDGVIVRPPVIDYKLIDVPELGYFSTDKPYPRGELLVRSQTLTPGYYKRPEVTASVFDRDGYYHTGDVMAETAPDHLVYVDRRNNVLKLAQGEFVAVANLEAVFSGAALVRQIFVYGNSERSFLLAVVVPTPEALEQYDPAALKAALADSLQRTARDAELQSYEVPADFIVETEPFSAANGLLSGVGKLLRPNLKDRYGQRLEQMYADIAATQANQLRELRRAAATQPVIDTLTQAAATILGTGSEVASDAHFTDLGGDSLSALTLSNLLSDFFGFEVPVGTIVNPATNLAQLAQHIEAQRTAGDRRPSFTTVHGADATEIRASELTLDKFIDAETLRAAPGLPKVTTEPRTVLLSGANGWLGRFLTLQWLERLAPVGGTLITIVRGRDDAAARARLTQAYDTDPELSRRFAELADRHLRVVAGDIGDPNLGLTPEIWHRLAAEVDLVVHPAALVNHVLPYRQLFGPNVVGTAEVIKLALTERIKPVTYLSTVSVAMGIPDFEEDGDIRTVSPVRPLDGGYANGYGNSKWAGEVLLREAHDLCGLPVATFRSDMILAHPRYRGQVNVPDMFTRLLLSLLITGVAPRSFYIGDGERPRAHYPGLTVDFVAEAVTTLGAQQREGYVSYDVMNPHDDGISLDVFVDWLIRAGHPIDRVDDYDDWVRRFETALTALPEKRRAQTVLPLLHAFRAPQAPLRGAPEPTEVFHAAVRTAKVGPGDIPHLDEALIDKYIRDLREFGLI	–	–	accepted N7-acetyl-7-aminoheptanoate as substrate
